Each block holds one molecule with its values, some of them ahead of it.
Tests used:
α-AaGlyRS = target: T1, α-AaGlyRS (Aquifex aeolicus, UniProt O67081); assay: thermal shift assay, SYPRO Orange; assay type: binding; settings: 8 mM GSAd; reference Tm without ligand 83.2 °C; 25 mM NaH2PO4, 25 mM KCl, 10 mM MgCl2
T1 construct: gene glyQ; alpha subunit alone of alpha2beta2 GlyRS; synthetic codon-optimised gene in pET-28, N-terminal His6 (His tag/TEV residues kept), E. coli BL21(DE3)

purified protein = substrate: NCC(=O)O; assay: purified protein; assay type: biochemical, Aquifex aeolicus; settings: 0.5 mM ATP, 10 mM MgCl2, 50 mM Tris pH 8.0, 50 mM KCl, 45 °C, 40 μM enzyme, alpha subunit alone
[1] = target: the molecule itself; assay: SEC-MALS; Superdex S-75 10/300 analytical column, 0.5 ml/min, DAWN Heleos-II and Optilab RI detectors; protein loaded after concentration to 15 mg/ml; one peak with 99.9% of the injected mass

- Tm with 8 mM ligand (α-AaGlyRS): 92.3 °C
Molecule: NCC(=O)NS(=O)(=O)OC[C@H]1O[C@@H](n2cnc3c(N)ncnc32)[C@H](O)[C@@H]1O [GSAd, 5′-O-[N-(L-glycyl)sulfamoyl] adenosine]

B1: α-subunit of the α2β2 glycyl tRNA synthetase (GlyRS) from Aquifex aeolicus (enzyme)
chain: MYFQDIIMTLHKFWAEKGCLIWQPYDVEVGAGTMNPATFLKVLGKKPWNVAYVEPSRRPQDGRYGENPNRLQHYYQFQVILKPAPRNPQEIYLESLERLGINPLEHDIRFVEDDWESPTLGAWGLGWEVWLDGMEITQFTYFQQAGGLDLDEISVEITYGLERIAMYIQDKDSVFDIEWKEGITYGEIFKRSEWEWSKYNFELADTDMLFQVYEMFEKESKRMVEEGLIFPAYDYLLKCSHVFNILDARGAISVQERARYIRRMNNLAREIAKLYLQVFENVGAT
notes: Glycyl tRNA synthetase α-subunit, Aquifex aeolicus; synthetic cDNA (Genscript), codon-optimised for E. coli, in pET-28; No cleavage of the tag is described; The theoretical mass of the dimer is printed as 67.4 kDa; Crystals were soaked with the glycyl adenylate analog GSAd; also called α-AaGlyRS; α-subunit GlyRS; source: E. coli BL21(DE3), purified (heat treatment 75 °C, Ni2+-Sepharose, size …)
- Km (purified protein): 110 ± 16 µM
- kcat (purified protein): 0.00023 s⁻¹
- stoichiometry N [1]: 2
